These results are taken from the supplement of paper PMC12338614.

B1: library; numbered along this chain (parent)
chain: MEVVDPQQLGMFTEGELMSVGMDTFIHRIDSTEVIYQPRRKRAKLIGKYLMGDLLGEGSYGKVKEVLDSETLCRRAVKILKKKKLRRIPNGEANVKKEIQLLRRLRHKNVIQLVDVLYNEEKQKMYMVMEYCVCGMQEMLDSVPEKRFPVCQAHGYFCQLIDGLEYLHSQGIVHKDIKPGNLLLTTGGTLKISDLGVAEALHPFAADDTCRTSQGSPAFQPPEIANGLDTFSGFKVDIWSAGVTLYNITTGLYPFEGDNIYKLFENIGKGSYAIPGDCGPPLSDLLKGMLEYEPAKRFSIRQIRQHSWFRKKHPPAEAPVPIPPSPDTKDRWRSMTVVPYLEDLHGADEDEDLFDIEDDIIYTQDFTVPGQVPEEEASHNGQRRGLPKAVCMNGTEAAQLSTKSRAEGRAPNPARKACSASSKIRRLSACKQQ

± gives the uncertainty stated by the source.

In this data set the parent is B1. Nature of the data set: STK11 functional score (HeLa growth suppression), rescaled enrichment; synonymous median = 1, nonsense median = 0 (normalised score). The following applies: with HeLa; variant type: missense. The method in brief: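 HeLa cells carrying an AAVS1 landing pad received codon-optimised STK11 libraries made by codon randomisation (POPCode), integrated by Bxb1, with three regions each transfected three times. Integrants that were BFP-negative and mCherry-positive were sorted by FACS 4–5 days after electroporation and then grown for about two weeks. Tiled amplicons from gDNA were sequenced on NextSeq at ~2 million reads per tile. The functional score is a wild-type-corrected log ratio of post- to pre-selection counts, rescaled to the synonymous and nonsense medians, merged across codons and replicate transfections, and given a bootstrapped error.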
MEVVDPQQLGMFTEGELMSVGMDTFIHRIDSTEVIYQPRRKRAKLIGKYLMGDLLGEGSYGKVKEVLDSETLCRRAVKILKKKKLRRIPNGEANVKKEIQLLRRLRHKNVIQLVDVLYNEEKQKMYMVMEYCVCGMQEMLDSVPEKRQPVCQAHGYFCQLIDGLEYLHSQGIVHKDIKPGNLLLTTGGTLKISDLGVAEALHPFAADDTCRTSQGSPAFQPPEIANGLDTFSGFKVDIWSAGVTLYNITTGLYPFEGDNIYKLFENIGKGSYAIPGDCGPPLSDLLKGMLEYEPAKRFSIRQIRQHSWFRKKHPPAEAPVPIPPSPDTKDRWRSMTVVPYLEDLHGADEDEDLFDIEDDIIYTQDFTVPGQVPEEEASHNGQRRGLPKAVCMNGTEAAQLSTKSRAEGRAPNPARKACSASSKIRRLSACKQQ [F148Q]: the STK11 functional score was found to be 0.0904 ± 0.082.
As to MEVVDPQQLGMFTEGELMSVGMDTFIHRIDSTEVIYQPRRKRAKLIGKYLMGDLLGEGSYGKVKEVLDSETLCRRAVKILKKKKLRRIPNGEANVKKEIQLLRRLRHKNVIQLVDVLYNEEKQKMYMVMEYCVCGMQEMLDSVPEKRSPVCQAHGYFCQLIDGLEYLHSQGIVHKDIKPGNLLLTTGGTLKISDLGVAEALHPFAADDTCRTSQGSPAFQPPEIANGLDTFSGFKVDIWSAGVTLYNITTGLYPFEGDNIYKLFENIGKGSYAIPGDCGPPLSDLLKGMLEYEPAKRFSIRQIRQHSWFRKKHPPAEAPVPIPPSPDTKDRWRSMTVVPYLEDLHGADEDEDLFDIEDDIIYTQDFTVPGQVPEEEASHNGQRRGLPKAVCMNGTEAAQLSTKSRAEGRAPNPARKACSASSKIRRLSACKQQ [F148S], the STK11 functional score is -0.139 ± 0.082.
Regarding MEVVDPQQLGMFTEGELMSVGMDTFIHRIDSTEVIYQPRRKRAKLIGKYLMGDLLGEGSYGKVKEVLDSETLCRRAVKILKKKKLRRIPNGEANVKKEIQLLRRLRHKNVIQLVDVLYNEEKQKMYMVMEYCVCGMQEMLDSVPEKRRPVCQAHGYFCQLIDGLEYLHSQGIVHKDIKPGNLLLTTGGTLKISDLGVAEALHPFAADDTCRTSQGSPAFQPPEIANGLDTFSGFKVDIWSAGVTLYNITTGLYPFEGDNIYKLFENIGKGSYAIPGDCGPPLSDLLKGMLEYEPAKRFSIRQIRQHSWFRKKHPPAEAPVPIPPSPDTKDRWRSMTVVPYLEDLHGADEDEDLFDIEDDIIYTQDFTVPGQVPEEEASHNGQRRGLPKAVCMNGTEAAQLSTKSRAEGRAPNPARKACSASSKIRRLSACKQQ [F148R], the STK11 functional score was -0.0906 ± 0.086.
For the variant MEVVDPQQLGMFTEGELMSVGMDTFIHRIDSTEVIYQPRRKRAKLIGKYLMGDLLGEGSYGKVKEVLDSETLCRRAVKILKKKKLRRIPNGEANVKKEIQLLRRLRHKNVIQLVDVLYNEEKQKMYMVMEYCVCGMQEMLDSVPEKRYPVCQAHGYFCQLIDGLEYLHSQGIVHKDIKPGNLLLTTGGTLKISDLGVAEALHPFAADDTCRTSQGSPAFQPPEIANGLDTFSGFKVDIWSAGVTLYNITTGLYPFEGDNIYKLFENIGKGSYAIPGDCGPPLSDLLKGMLEYEPAKRFSIRQIRQHSWFRKKHPPAEAPVPIPPSPDTKDRWRSMTVVPYLEDLHGADEDEDLFDIEDDIIYTQDFTVPGQVPEEEASHNGQRRGLPKAVCMNGTEAAQLSTKSRAEGRAPNPARKACSASSKIRRLSACKQQ [F148Y], the STK11 functional score is 0.892 ± 0.11.
With MEVVDPQQLGMFTEGELMSVGMDTFIHRIDSTEVIYQPRRKRAKLIGKYLMGDLLGEGSYGKVKEVLDSETLCRRAVKILKKKKLRRIPNGEANVKKEIQLLRRLRHKNVIQLVDVLYNEEKQKMYMVMEYCVCGMQEMLDSVPEKRVPVCQAHGYFCQLIDGLEYLHSQGIVHKDIKPGNLLLTTGGTLKISDLGVAEALHPFAADDTCRTSQGSPAFQPPEIANGLDTFSGFKVDIWSAGVTLYNITTGLYPFEGDNIYKLFENIGKGSYAIPGDCGPPLSDLLKGMLEYEPAKRFSIRQIRQHSWFRKKHPPAEAPVPIPPSPDTKDRWRSMTVVPYLEDLHGADEDEDLFDIEDDIIYTQDFTVPGQVPEEEASHNGQRRGLPKAVCMNGTEAAQLSTKSRAEGRAPNPARKACSASSKIRRLSACKQQ [F148V], the STK11 functional score turned out to be 0.674 ± 0.14.
Then MEVVDPQQLGMFTEGELMSVGMDTFIHRIDSTEVIYQPRRKRAKLIGKYLMGDLLGEGSYGKVKEVLDSETLCRRAVKILKKKKLRRIPNGEANVKKEIQLLRRLRHKNVIQLVDVLYNEEKQKMYMVMEYCVCGMQEMLDSVPEKRWPVCQAHGYFCQLIDGLEYLHSQGIVHKDIKPGNLLLTTGGTLKISDLGVAEALHPFAADDTCRTSQGSPAFQPPEIANGLDTFSGFKVDIWSAGVTLYNITTGLYPFEGDNIYKLFENIGKGSYAIPGDCGPPLSDLLKGMLEYEPAKRFSIRQIRQHSWFRKKHPPAEAPVPIPPSPDTKDRWRSMTVVPYLEDLHGADEDEDLFDIEDDIIYTQDFTVPGQVPEEEASHNGQRRGLPKAVCMNGTEAAQLSTKSRAEGRAPNPARKACSASSKIRRLSACKQQ [F148W], with 0.336 ± 0.079; and MEVVDPQQLGMFTEGELMSVGMDTFIHRIDSTEVIYQPRRKRAKLIGKYLMGDLLGEGSYGKVKEVLDSETLCRRAVKILKKKKLRRIPNGEANVKKEIQLLRRLRHKNVIQLVDVLYNEEKQKMYMVMEYCVCGMQEMLDSVPEKRTPVCQAHGYFCQLIDGLEYLHSQGIVHKDIKPGNLLLTTGGTLKISDLGVAEALHPFAADDTCRTSQGSPAFQPPEIANGLDTFSGFKVDIWSAGVTLYNITTGLYPFEGDNIYKLFENIGKGSYAIPGDCGPPLSDLLKGMLEYEPAKRFSIRQIRQHSWFRKKHPPAEAPVPIPPSPDTKDRWRSMTVVPYLEDLHGADEDEDLFDIEDDIIYTQDFTVPGQVPEEEASHNGQRRGLPKAVCMNGTEAAQLSTKSRAEGRAPNPARKACSASSKIRRLSACKQQ [F148T], with -0.101 ± 0.1.
